{
  "source": "paper PMC2770954",
  "key": {"[1]": {"biological_target": "HIV-1 reverse transcriptase p66 subunit (wild type) (HIV-1) (UniProt P03366)", "experiment": "intrinsic tryptophan fluorescence kinetics"}, "[2]": {"biological_target": "HIV-1 reverse transcriptase p66 subunit (wild type) (HIV-1) (UniProt P03366)", "experiment": "pre-steady-state activity assay"}, "[3]": {"biological_target": "HIV-1 reverse transcriptase p51 p51 (Human immunodeficiency virus 1) (UniProt O93215)", "details": "cited from earlier work"}, "[4]": {"biological_target": "HIV-1 reverse transcriptase p66 p66 (Human immunodeficiency virus 1) (UniProt O93215)", "details": "cited from earlier work"}, "[5]": {"biological_target": "p66^S3C/C38V/C280S labeled with QSY9 (HIV-1)", "experiment": "FRET or BRET"}, "[6]": {"biological_target": "p66^S3C/C38V/C280S labeled with A488 (HIV-1)", "experiment": "FRET or BRET"}},
  "note": "Where “and” joins values, the source holds several entries; their conditions need not be identical. Equal entries are not always repeated.",
  "data": [
    {"substance": "HIV-1 reverse transcriptase p51 subunit (wild type) (from UniProt P03366 600-1039) (natural protein)", "values": [
      {"measurement": "kdiss(1), slower major component of the two-exponential fit", "setting": "[1]", "value": "3.6e-06", "unit": "s⁻¹"},
      {"measurement": "kdiss(2), faster minor component of the two-exponential fit", "setting": "[1]", "value": "7.6e-05", "unit": "s⁻¹"},
      {"measurement": "kobs (0.5 µM p66, 0.5 µM p51)", "setting": "[1]", "value": "5.4e-06", "unit": "s⁻¹"},
      {"measurement": "kobs (0.5 µM p66, 0.5 µM p51)", "setting": "[2]", "value": "5.8e-06", "unit": "s⁻¹"},
      {"measurement": "kobs (0.5 µM p66, 2.5 µM p51)", "setting": "[2]", "value": "7.8e-06", "unit": "s⁻¹"}
    ]},
    {"substance": "HIV-1 reverse transcriptase p66 p66 (from UniProt O93215)", "values": [
      {"measurement": "Kd", "setting": "[3]", "value": 310, "unit": "nM"},
      {"measurement": "Kd", "setting": "[4]", "value": 4.2, "unit": "µM"}
    ]},
    {"substance": "p51^S3C/C38V/C280S labeled with A488 (natural protein)", "values": [
      {"measurement": "kobs (0.5 µM p66-QSY9, 0.5 µM p51-A488)", "setting": "[5]", "value": "3.4e-06", "unit": "s⁻¹"},
      {"measurement": "koff", "setting": "[5]", "value": "1.9e-06", "unit": "s⁻¹"}
    ]},
    {"substance": "p51^S3C/C38V/C280S labeled with QSY9 (natural protein)", "values": [
      {"measurement": "kobs (0.5 µM p66-A488, 0.5 µM p51-QSY9)", "setting": "[6]", "value": "4.1e-06", "unit": "s⁻¹"},
      {"measurement": "kobs (0.5 µM p66-A488, 1.5 µM p51-QSY9)", "setting": "[6]", "value": "4.8e-06", "unit": "s⁻¹"},
      {"measurement": "kobs (0.5 µM p66-A488, 2.0 µM p51-QSY9)", "setting": "[6]", "value": "5.7e-06", "unit": "s⁻¹"},
      {"measurement": "kobs (0.5 µM p66-A488, 2.5 µM p51-QSY9)", "setting": "[6]", "value": "7.1e-06", "unit": "s⁻¹"},
      {"measurement": "koff", "setting": "[6]", "value": "2.5e-06", "unit": "s⁻¹"},
      {"measurement": "kon", "setting": "[6]", "value": "1.6 M⁻¹ s⁻¹ and 1.8 M⁻¹ s⁻¹"}
    ]}
  ]
}
